From a protein production outcome set (Wang et al. 2014)

Assay: label from the status in PepcDB records

Sequence	protein production
MDKILFDIALILIFTKIGSLISIHFKMPGVLGELIAGVILGPFILNLIQANADIKLLSDLGVVFLMFLAGIETNLDELKKAGKSSFLIALGGIIIPLIVGTLSAYMFFSNFYENLFVGVILTATSVSISVQTLTELGKLNTRSGINILGAAIIDDVLGLILITVVLAISGGTKSHGSSIFMTFIYIGIFCLVSLLAIAFLPKPIDKLTQKFKPQKGLAIFSIAAALICAFTAEKLGIAAITGAYICGLVLSPITHKEYIEKRVKIISTSFLSPIFFASVGISASVKGLNFEVLLITLIMFIIAVIGKILGCSASALTLKFKKSEALQIGVGMVSRGEVAIITANIGLQAKIISEEIFLPTLIVVILTTVITPILLKIVFSHKTQKLIDKETLT	failed
MDKQSERNESKLFISNMVESAIRIGLIFVLLMFTYDIIRPFILPVIWGAIIAVALLPLTKKLQRAYGGRRGLAATTIVLLGIALLVTPLVMVSGSIVDGATHALDVLQNGQVKIPGPKASVADWPLVGDKLYEVWTLFATNLEQAIQTFMPQIKSALTSLLGMVGGVLGSLLLSILSLAIAAGFMTYSESLASGLQTIAIRTAGENAKSWTTLIAATIKSVLLGVVGVAAIQALLIGAGFFVFGVPAAGLLTLILMILCIAQLPALLAVLPVIGYMYMTQDSTTATMFTVWAVVGALSENLLKPMFMGRGVDVPMPVILLGAIGGMLFYGIVGLFLGAVILAIWYELFVWWLSIEKAQQQEEMAELKEEEEQTESGHGAGI	not failed
MDKVILITGASGGIGEGIARELGRRCENIVGCTPPGPYRGHCHGDSTQEVPPWRRCWTPTVTPWQPLQAAVDTWGRIDVLVNNAGVMPLSACRSGGRVGAHDRREHQGRALGSGPYCQSWRHSVAGRSSISARSALSVVPTAAVYCATKFAVRAISDTAPGEYQYPRHLRQSRRRRKRTCEPSPTRRPWRRWTPIAPSRFSLDIARAVRQVIEAPQSVDTTEITITDRIGQL	not failed
MDLAGQGQYGQVYLAVNRESGDLVAIKVLSERQLLTRGFLRELNFLLTLQHPHVVGCQAIDYIRVHHSPQVSRSLVMDYCAGGTLRSLLEQEQALPLTTALRLTLDILSALAYAHHRGILHCDLKPENILLEVTATGWQAKVSDFGVARLIEDVKGSGQTGSPAYMAPERFYGQTMPASDLYAVGILLYEMIVGDRPFHGTPAELMAAHLSRPYTLPEGLPFLVRSIIAKALDKLPQRRYKSAAEMTMAVQLALEVIEAEHHQQPLLFSRSPAAVWLGEPQGFALPRLPQQVASTATGFYGVVGDRLWAWQARETIPEATAQWPLPPLPIQLYGSEVSAWLRINALPPQLFCIHDQLIPLDGHLPSTLNPLTIDARGYWWAETQIDSAAAELQLHVQLINGQGRRTLRCQWHGRTFVDTLLLNRRYGAVISRSQDPETAHPITHFQLFDRRGHWRLYTPLPAHLTLLTPAHHQPWQVAAFEDHPQQPLLVLLHLRPWRIQRLGLRFRPQFLCATPWGYVVAGRHSLNLVTHSGEIVGTAESEQEIDGLGFTGDRHLWLIRRQGSGCVIQTWDITTWDIHLIL	failed
MDLEEQKKAVIEKLIREGYIKSKRVIDALLKVPREEFLPEHLKEYAYVDTPLEIGYGQTISAIHMVGMMCELLDLKPGMKVLEIGTGCGYHAAVTAEIVGEDGLVVSIERIPELAEKAERTLRKLGYDNVIVIVGDGTLGYEPLAPYDRIYTTAAGPKIPEPLIRQLKDGGKLLMPVGRYLQRLVLAEKRGDEIIIKDCGPVAFVPLVGKEGFQG	not failed
MDLEINKGIGRNVEFKGLESQYLFIFCGGLLAVFVVFVILYMAGVNQWVCIGFGVAAATLLVWLTFRLNARYGTHGLMKAAARRRHPRYVVNRLKIPRLFTFKHWQE	failed
MDLFDTPLAPLQVLDDAEGGVRYWPQLLAPAVAQAAFAALRDGADWQRHQRTMYDRVVDVPRLLASYRLDAPLPPGLPLQLLLAAVQAQLPAPYNAVGLNLYRDGRDSVAMHHDKLHTLLAPHPIALLSLGTPRRMQLRAKQGATRAITLELAPGSLLAMSHASQLTHEHGIPKTTRALGERISVVFRVRPPARMAAGQHGPHWEALTQTDLEHHHHHH	not failed
MDLFNLLDGITFWHWLAFGFVLLAVELLGTAGYFLWLGLSALLVGALLAVLPFGWQLQWLSFATFSLLTTWLWWRRQWSRDKQDDQTRDLNQKYKQLIGRSVILEEDFSIGLNRIRIADTTWSAQCEQNIRAGTRVKIVAIDGIILIVEPISE	failed
MDLFSNLALGFQVAASPTNLLLCLTGALVGTLIGVLPGIGTIATVAMLLPITFGLPPVGALIMLAGIYYGAQYGGSTTSILVNIPGEATSVVTTLDGFQMAKQGRAGPALAIAAIGSFAAGCFATVLIALVGEPLTRLALEFGPAEYFSLMVLGLVFAVVLARGSVLKAVAMIVLGLLLSTVGSDIETGVSRMTFDVPELADGLGFATVAMGVFGFAEIIRNLDFGAATDRELVQQKITGLMPTRKDLRDAAPAIGRGTLLGSLLGILPGGGAVIASFAAYTLEKKIARDPKRFGRGAIEGVAAPESANNAAAQTSFIPLLTLGIPPNAVMALMVGAMTIHNIVPGPQVMKNQPELVWGMIASMWIGNLMLLVINLPLVGIWVRLLRVPYRLMFPSIVVFCCIGIYSVNNAPVDVVLAGAFGLIGYWLVKHDFEPAPLLLGMVLGPLMEDNLRRALLISRGDATAFVTRPLSASLLVVAAGLLILSVLPMLRRKRDEVFVESEG	failed
MDLGPEQIFGAPCRKCKEKCEGFELHFWKKTCRNCKCGQEEHGILLSTEEDRKVGRIIEDGKDTNQIAKLKADEIPMDKTSETVLNKPEPEKKDDFTKTVSYEWVPSVQNKALTRQYMQMLPKEKQPVSGSEGAQYRKKQLAKQLPAHDQDPNKCHELSRKEAKEMRQFVKKYKNEALGVGDVRLPSEMNVQHYKGHNPATDRNTPTAVDFKDTSMEPKKPQYSCYSCKHAVKEGNPAIFAERAGYDKLWHPACFICTICGEILVDMIYFWKNGKLYCGRHYCDSEKPRCAGCDELIFSNEYTQAENKNWHLIHFCCFHCHNVLAGKIYVMVGSKPVCKSCYMKIHAVVCQGCHNAIDPEEQRVIYQNFSWHASTACFLCSCCSKCLLGKKFIRVEGMIFCSIECKNMMS	failed
MDLKTSYKGISLNPIYAGSSAVATVSENGKILATPVLDEINIIDLTPGSRKILHKISNEDEQEITALKLTPDGQYLTYVSQAQLLKIFHLKTGKVVRSMKISSPSYILDADSTSTLLAVGGTDGSIIVVDIENGYITHSFKGHGGTISSLKFYGQLNSKIWLLASGDTNGMVKVWDLVKRKCLHTLQEHTSAVRGLDIIEVPDNDEPSLNLLSGGRDDIINLWDFNMKKKCKLLKTLPVNQQVESCGFLKDGDGKRIIYTAGGDAIFQLIDSESGSVLKRTNKPIEELFIIGVLPILSNSQMFLVLSDQTLQLINVEEDLKNDEDTIQVTSSIAGNHGIIADMRYVGPELNKLALATNSPSLRIIPVPDLSGPEASLPLDVEIYEGHEDLLNSLDATEDGLWIATASKDNTAIVWRYNENSCKFDIYAKYIGHSAAVTAVGLPNIVSKGYPEFLLTASNDLTIKKWIIPKPTASMDVQIIKVSEYTRHAHEKDINALSVSPNDSIFATASYDKTCKIWNLENGELEATLANHKRGLWDVSFCQYDKLLATSSGDKTVKIWSLDTFSVMKTLEGHTNAVQRCSFINKQKQLISCGADGLIKIWDCSSGECLKTLDGHNNRLWALSTMNDGDMIVSADADGVFQFWKDCTEQEIEEEQEKAKLQVEQEQSLQNYMSKGDWTNAFLLAMTLDHPMRLFNVLKRALGESRSRQDTEEGKIEVIFNEELDQAISILNDEQLILLMKRCRDWNTNAKTHTIAQRTIRCILMHHNIAKLSEIPGMVKIVDAIIPYTQRHFTRVDNLVEQSYILDYALVEMDKLF	failed
MDLLAMNIPVSLQSKPPLWLLAELTYRCPLQCAYCSNPLDYAAVKQELSTDEWKDVFRQARAMGSVQLGFSGGEPLLRQDLSELIKYAHELGFYTNLITSGIGLTEQKIAEFSEAGLDHIQISFQASDPALSEILSGSRKAFQQKQAMALAVKKHRYPMVLNFVIHRFNIEQIDQIIELSLELNADYVELATCQFYGWAKLNQAALLPTPEQISYAQARVQAYRQYIDQHHLKTKLLLVAPDYYQERPKKCIGGWGQIFITVSPDGTVLPCQSAKDLPLEFPTIQDQSLKTIWNEAFAFNAFRGTDWMQEPCRSCPDKDKDLGGCRCQAYMLTKNMYATDPVCSKSPVHHQIVEARLQTQCSKPDISDLKLRNPQNSKLFFKRASDADSLL	failed
